Measured values reported in patent US7470669B2, “Isolated polypeptide comprising a leptin fragment” (Serono Genetics Institute, S.A., priority 1999, dated 2008).

Tests used:
[1] = test system: LSR mRNA; assay: Northern analysis of LSR mRNA in PLC cells preincubated 24 h with leptin; assay type: cell-based, human; conditions: preincubated 24 h with 200-400 ng/mL leptin
Procedure: FIGS. 35A and 35B show graphs of LSR activity and mRNA expression measured in PLC cells preincubated 24 h with leptin. In FIG. 35A, PLC monolayers were incubated 24 h at 37° C. with (o) or without (n) 200 ng/mL human recombinant leptin. After washing with PBS, cells were incubated 30 min at 37° C. with increasing concentrations of human leptin, followed by a 2 h incubation at 37° C. with 0.8 mM oleate and 20 μg/mL ^125I-LDL. Cells were washed, and the amount of oleate-induced ^125I-LDL binding was measured as described previously. Results are shown as the mean of triplicate determinations. In FIG. 35B, PLC monolayers were incubated 24 h at 37° C. with 0, 200, or 400 ng/mL human recombinant leptin. After washing with PBS, the cells were harvested. Total RNA was prepared from the cell pellets, and Northerns were performed to detect LSR mRNA, using GAPDH probe as loading control as described previously. Northern blots were scanned on the Phosphorimager (Molecular Dynamics, Sunnyvale, Calif.). Densitometric analysis of the images was performed using the software ImageQuant. Results are shown as the amount of LSR signal relative to that of GAPDH (mean±SD, n=3/condition). […]

[2] = molecular target: T1, Ob-R (Mus musculus, UniProt P48356); conditions: Tartaglia et al, 1995; cited from earlier work
T1 sequence (P48356 22-894 isoform P48356-2 limits assumed): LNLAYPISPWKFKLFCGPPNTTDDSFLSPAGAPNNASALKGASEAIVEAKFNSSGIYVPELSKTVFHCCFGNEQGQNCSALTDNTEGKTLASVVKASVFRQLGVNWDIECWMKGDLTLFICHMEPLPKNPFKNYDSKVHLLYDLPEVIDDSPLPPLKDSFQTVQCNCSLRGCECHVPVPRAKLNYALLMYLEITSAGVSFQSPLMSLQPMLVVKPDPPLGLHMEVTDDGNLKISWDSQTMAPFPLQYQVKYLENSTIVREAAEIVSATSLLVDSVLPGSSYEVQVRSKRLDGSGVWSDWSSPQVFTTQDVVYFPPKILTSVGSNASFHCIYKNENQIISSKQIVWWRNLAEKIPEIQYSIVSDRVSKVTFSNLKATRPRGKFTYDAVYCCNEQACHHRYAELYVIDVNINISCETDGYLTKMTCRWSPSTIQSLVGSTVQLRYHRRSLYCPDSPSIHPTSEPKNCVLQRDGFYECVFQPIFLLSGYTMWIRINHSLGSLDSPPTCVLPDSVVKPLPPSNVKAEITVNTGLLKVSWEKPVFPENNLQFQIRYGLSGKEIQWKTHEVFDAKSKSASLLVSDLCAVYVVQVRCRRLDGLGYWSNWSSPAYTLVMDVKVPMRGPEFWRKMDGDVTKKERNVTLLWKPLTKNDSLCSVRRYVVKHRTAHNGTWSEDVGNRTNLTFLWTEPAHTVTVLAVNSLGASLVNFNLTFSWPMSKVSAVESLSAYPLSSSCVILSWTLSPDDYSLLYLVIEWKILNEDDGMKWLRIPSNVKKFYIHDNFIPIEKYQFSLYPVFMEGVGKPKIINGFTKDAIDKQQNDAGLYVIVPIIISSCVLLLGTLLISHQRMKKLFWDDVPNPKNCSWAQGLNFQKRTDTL

## leptin: plasma protein of 16 kDa produced by adipocytes; recombinant human or mouse leptin, species depends on the experiment
[1]
  decrease of hepatocyte LSR mRNA relative to GAPDH: 25-35%
[2]
  Kd: 0.7 nM
